Experiments:
crtp1_human CYSRT1 = biological target: T1, crtp1_human CYSRT1 (UniProt A8MQ03)
T1 sequence: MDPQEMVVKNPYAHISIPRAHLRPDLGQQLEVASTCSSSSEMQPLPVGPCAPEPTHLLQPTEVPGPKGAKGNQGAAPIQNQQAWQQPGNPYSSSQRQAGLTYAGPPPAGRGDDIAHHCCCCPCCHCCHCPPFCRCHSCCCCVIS

bik_human BIK = bik_human BIK (UniProt Q13323)
gpx8_human GPX8 = biological target: T2, gpx8_human GPX8 (UniProt Q8TED1)
T2 sequence: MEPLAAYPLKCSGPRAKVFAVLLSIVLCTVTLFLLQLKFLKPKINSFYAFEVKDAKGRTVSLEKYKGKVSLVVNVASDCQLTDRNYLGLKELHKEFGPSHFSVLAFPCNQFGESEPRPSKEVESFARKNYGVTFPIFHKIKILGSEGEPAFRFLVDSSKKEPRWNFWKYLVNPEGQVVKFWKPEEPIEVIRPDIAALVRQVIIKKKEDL

cgrf1_human CGRRF1 = biological target: T3, cgrf1_human CGRRF1 (UniProt Q99675)
T3 sequence: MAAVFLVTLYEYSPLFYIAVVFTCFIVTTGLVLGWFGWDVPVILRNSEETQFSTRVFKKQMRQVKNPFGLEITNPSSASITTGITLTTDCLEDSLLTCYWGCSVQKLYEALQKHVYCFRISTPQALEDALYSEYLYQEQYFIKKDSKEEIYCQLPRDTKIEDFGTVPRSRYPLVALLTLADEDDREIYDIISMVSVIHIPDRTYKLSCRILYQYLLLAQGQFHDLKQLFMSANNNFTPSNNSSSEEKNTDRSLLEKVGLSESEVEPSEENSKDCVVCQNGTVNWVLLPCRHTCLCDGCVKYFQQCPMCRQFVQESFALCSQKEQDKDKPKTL

jam1_human F11R = biological target: T4, jam1_human F11R (UniProt Q9Y624)
T4 sequence: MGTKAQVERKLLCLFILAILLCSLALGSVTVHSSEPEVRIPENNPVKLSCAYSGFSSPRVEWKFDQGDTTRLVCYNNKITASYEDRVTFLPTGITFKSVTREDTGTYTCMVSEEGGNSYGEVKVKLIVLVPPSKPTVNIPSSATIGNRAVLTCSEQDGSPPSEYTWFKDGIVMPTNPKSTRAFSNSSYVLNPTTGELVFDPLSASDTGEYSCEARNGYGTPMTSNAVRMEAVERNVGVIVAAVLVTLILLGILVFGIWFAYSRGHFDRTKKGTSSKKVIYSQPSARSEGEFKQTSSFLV

ergi3_human ERGIC3 = ergi3_human ERGIC3 (UniProt Q9Y282)
FAM209A = biological target: T5, FAM209A (UniProt Q5JX71)
T5 sequence: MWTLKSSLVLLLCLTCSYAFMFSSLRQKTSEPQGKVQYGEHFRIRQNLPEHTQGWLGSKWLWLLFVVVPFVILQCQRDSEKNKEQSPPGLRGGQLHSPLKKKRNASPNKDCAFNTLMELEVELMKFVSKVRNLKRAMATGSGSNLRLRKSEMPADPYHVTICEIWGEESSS

ar13b_human ARL13B = ar13b_human ARL13B (UniProt Q3SXY8)
cplx4_human CPLX4 = biological target: T6, cplx4_human CPLX4 (UniProt Q7Z7G2)
T6 sequence: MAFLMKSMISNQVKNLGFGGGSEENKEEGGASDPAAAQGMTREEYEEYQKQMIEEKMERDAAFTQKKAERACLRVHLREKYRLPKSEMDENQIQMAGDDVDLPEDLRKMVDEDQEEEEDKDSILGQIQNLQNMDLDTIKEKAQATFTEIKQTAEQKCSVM

Measured: effect of a mutation on the interaction

Sequence of bik_human BIK (Q13323 whole entry): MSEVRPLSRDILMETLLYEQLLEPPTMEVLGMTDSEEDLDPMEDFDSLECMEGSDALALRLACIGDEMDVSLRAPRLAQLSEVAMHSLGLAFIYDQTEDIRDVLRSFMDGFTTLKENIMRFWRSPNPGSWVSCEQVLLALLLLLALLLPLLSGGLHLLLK
Sequence of ar13b_human ARL13B (Q3SXY8 whole entry): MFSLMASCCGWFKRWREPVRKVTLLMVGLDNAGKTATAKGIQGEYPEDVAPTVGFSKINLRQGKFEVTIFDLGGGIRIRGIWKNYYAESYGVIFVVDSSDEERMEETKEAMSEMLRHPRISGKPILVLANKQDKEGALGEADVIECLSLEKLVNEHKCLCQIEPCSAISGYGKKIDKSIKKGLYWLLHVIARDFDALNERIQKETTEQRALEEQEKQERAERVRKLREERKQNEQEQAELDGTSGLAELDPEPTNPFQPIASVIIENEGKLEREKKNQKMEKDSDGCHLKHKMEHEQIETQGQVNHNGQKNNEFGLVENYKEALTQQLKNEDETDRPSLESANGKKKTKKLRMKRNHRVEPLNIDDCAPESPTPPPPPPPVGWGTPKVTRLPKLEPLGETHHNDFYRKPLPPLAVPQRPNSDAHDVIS
Sequence of ergi3_human ERGIC3 (Q9Y282 whole entry): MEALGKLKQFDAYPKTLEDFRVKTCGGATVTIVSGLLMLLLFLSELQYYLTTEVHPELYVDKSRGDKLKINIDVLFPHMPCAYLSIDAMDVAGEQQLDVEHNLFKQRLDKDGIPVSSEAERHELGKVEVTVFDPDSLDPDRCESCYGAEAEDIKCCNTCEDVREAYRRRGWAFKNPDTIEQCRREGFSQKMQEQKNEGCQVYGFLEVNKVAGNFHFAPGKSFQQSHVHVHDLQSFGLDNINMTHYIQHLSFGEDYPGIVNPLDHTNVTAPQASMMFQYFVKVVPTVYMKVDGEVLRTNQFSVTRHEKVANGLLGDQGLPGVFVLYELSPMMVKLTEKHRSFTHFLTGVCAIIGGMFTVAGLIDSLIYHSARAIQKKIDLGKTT

Acyltransferase PGAP2 (Homo sapiens) (from UniProt Q9UHJ9-5) T160I
disrupting interaction strength: crtp1_human CYSRT1 | jam1_human F11R
with no effect: all other assays above
